{"source": "paper PMC9210550", "binders": {"B1": {"name": "cryo-EM substrate 2 (dsRNA)", "RNA 1": "GGCGCGCGCCAAAAAUUUUUAAAAAAAAAA", "RNA 2": "GGCGCGCGCCAAAAAUUUUUAAAAAAAAAA"}, "B2": {"name": "3' A5U5A10-tailed RNA duplex (dsRNA)", "RNA 1": "AGUGCGCUGUAUCUUCAAGGCCACU", "RNA 2": "AGUGGCCUUGAAGAUACAGCGCACUAAAAAUUUUUAAAAAAAAAA"}, "B3": {"name": "3' A20-tailed RNA duplex (dsRNA)", "RNA 1": "AGUGCGCUGUAUCUUCAAGGCCACU", "RNA 2": "AGUGGCCUUGAAGAUACAGCGCACUAAAAAAAAAAAAAAAAAAAA"}}, "key": {"[1]": {"target": "T1, ZCCHC8 core (NEXT subunit);RBM7 core (NEXT subunit);MTR4 (human;human;human, UniProt Q6NZY4;Q9Y580;P42285 1-415+508-707;6-86;1-1042, internal_change||)", "assay": "cryo-EM"}, "[2]": {"target": "T2, ZCCHC8 core (NEXT subunit);RBM7 core FAFA;MTR4 (human;human;human, UniProt Q6NZY4;Q9Y580;P42285 1-415+508-707;6-86;1-1042, internal_change|F13A;F52A|)", "assay": "EMSA"}, "[3]": {"target": "T1, ZCCHC8 core (NEXT subunit);RBM7 core …", "assay": "EMSA"}, "[4]": {"target": "ZCCHC8 core delta HD;RBM7 core (NEXT subunit);MTR4 (human;human;human, UniProt Q6NZY4;Q9Y580;P42285 176-415+508-707;6-86;1-1042, internal_change||)", "assay": "EMSA"}, "[5]": {"target": "T1, ZCCHC8 core (NEXT subunit);RBM7 core …", "assay": "EMSA", "remark": "listed apart in the source"}, "[6]": {"target": "T2, ZCCHC8 core (NEXT subunit);RBM7 core …", "assay": "EMSA", "remark": "listed apart in the source"}, "[7]": {"target": "ZCCHC8 core delta ZK;RBM7 core (NEXT subunit);MTR4 (human;human;human, UniProt Q6NZY4;Q9Y580;P42285 1-226+245-415+508-707;6-86;1-1042, internal_change||)", "assay": "EMSA"}, "[8]": {"target": "T1, ZCCHC8 core (NEXT subunit);RBM7 core …", "assay": "cryo-EM", "remark": "listed apart in the source"}}, "note": "Read-outs that look alike come from different tables or passages of the source.", "data": [{"binder": "B1", "values": [{"measurement": "binding result", "setting": "[1]", "value": "binds"}]}, {"binder": "B2", "values": [{"measurement": "binding signal", "setting": "[2]", "value": "~3", "unit": "fold weaker than NEXT"}, {"measurement": "Kd", "setting": "[3]", "value": 42, "unit": "nM"}, {"measurement": "binding signal", "setting": "[4]", "value": "~2", "unit": "fold weaker than NEXT"}]}, {"binder": "B3", "values": [{"measurement": "binding signal", "setting": "[5]", "value": "~10 fold weaker than NEXT on A5U5A10 tail"}, {"measurement": "binding signal", "setting": "[6]", "value": "~2 fold weaker than NEXT on A20 tail"}, {"measurement": "binding signal", "setting": "[7]", "value": "~4 fold tighter than NEXT on A20 tail"}]}, {"binder": "ACAUGAGGAUCACCCAUGUAAUCUCUUUCAAAAAAUACAAAAAAAA (structured_RNA, 2'-pyrene modified U at position 36)", "note": "[cryo-EM substrate 1]", "values": [{"measurement": "binding result", "setting": "[8]", "value": "binds"}]}]}
